Literature values as cited in patent publication US20050164248A1, “Compositions isolated from bovine tissues and methods for their use” (priority 1999, published 2005).

Test system: Candida albicans
Details: general statement, no value

B1: Lactoferrin (protein, UniProt P02788 20-710, looked up)
Lactotransferrin: GRRRSVQWCAVSQPEATKCFQWQRNMRKVRGPPVSCIKRDSPIQCIQAIAENRADAVTLDGGFIYEAGLAPYKLRPVAAEVYGTERQPRTHYYAVAVVKKGGSFQLNELQGLKSCHTGLRRTAGWNVPIGTLRPFLNWTGPPEPIEAAVARFFSASCVPGADKGQFPNLCRLCAGTGENKCAFSSQEPYFSYSGAFKCLRDGAGDVAFIRESTVFEDLSDEAERDEYELLCPDNTRKPVDKFKDCHLARVPSHAVVARSVNGKEDAIWNLLRQAQEKFGKDKSPKFQLFGSPSGQKDLLFKDSAIGFSRVPPRIDSGLYLGSGYFTAIQNLRKSEEEVAARRARVVWCAVGEQELRKCNQWSGLSEGSVTCSSASTTEDCIALVLKGEADAMSLDGGYVYTAGKCGLVPVLAENYKSQQSSDPDPNCVDRPVEGYLAVAVVRRSDTSLTWNSVKGKKSCHTAVDRTAGWNIPMGLLFNQTGSCKFDEYFSQSCAPGSDPRSNLCALCIGDEQGENKCVPNSNERYYGYTGAFRCLAENAGDVAFVKDVTVLQNTDGNNNEAWAKDLKLADFALLCLDGKRKPVTEARSCHLAMAPNHAVVSRMDKVERLKQVLLHQQAKFGRNGSDCPDKFCLFQSETKNLLFNDNTECLARLHGKTTYEKYLGPQYVAGITNLKKCSTSPLLEACEFLRK
- inhibitory activity against Candida (statement on control peptide): extremely inhibitory
